Data on one molecule can be found in patent US7901879B2, “Lactoferrin in the treatment of malignant neoplasms and other hyperproliferative diseases” (Agennix Incorporated, priority 2002, dated 2011).

In assay [1] the test system is circulating lymphocytes. Briefly: Circulating lymphocytes after intratumoral rhLF in tumor-bearing mice (Example 18). The format is in vivo, C3H/HeJ mice. The protocol:
Normal C3H/HeJ mice were implanted with one of two mouse tumors following the methodology described in Example 17. Tumors used were SCCVII and RIF mouse tumor cell lines. Following establishment of the tumors in the mice, tumors were injected intratumorally daily for 4 days with 250 or 500 μg rhLF per dose or with vehicle control. Twenty four hours following the last intratumoral injection, animals were sacrificed and the blood examined for lymphocyte populations. The number of circulating lymphocytes were increased by 34% to 56% relative to the placebo treated control animals (Table 14).

Assay [2] relates to metastatic cancer. As to the kind of experiment: Oral rhLF in human patients with metastatic cancer, tumor size by CT. The format is in vivo. The protocol:
Recombinant human lactoferrin was orally administered to human patients with a range of metastatic cancer types that had failed standard chemotherapy in two different studies conducted in multiple centers in four countries (Argentina, Brazil, Chile, U.S.) RhLF was administered at doses of 1.5 to 9 grams daily in two divided doses in cycles of 14 each with a 14 day gap.
Tumor size progression was monitored through CT scans and tumor markers where available. CT scans were performed at baseline and after each 8-week period once treatment was initiated, and also compared with a pre-baseline scan conducted prior to enrollment in the study. Tumor markers are measured every 4 weeks. Blood samples were collected to measure subclasses of circulating lymphocytes and NK cell activity. Plasma, serum and blood cell extract samples were collected to measure circulating IL-18, IL-1, IL-2, and IL-4, IL-5, IL-10, IL-12 and IFN-γ.

Where [3] appears, read: intratumoral 250 or 500 μg per dose daily for 4 days, blood 24 h after last injection.

B1: Recombinant human lactoferrin (protein, UniProt P02788 20-710, looked up)
Lactotransferrin: GRRRSVQWCAVSQPEATKCFQWQRNMRKVRGPPVSCIKRDSPIQCIQAIAENRADAVTLDGGFIYEAGLAPYKLRPVAAEVYGTERQPRTHYYAVAVVKKGGSFQLNELQGLKSCHTGLRRTAGWNVPIGTLRPFLNWTGPPEPIEAAVARFFSASCVPGADKGQFPNLCRLCAGTGENKCAFSSQEPYFSYSGAFKCLRDGAGDVAFIRESTVFEDLSDEAERDEYELLCPDNTRKPVDKFKDCHLARVPSHAVVARSVNGKEDAIWNLLRQAQEKFGKDKSPKFQLFGSPSGQKDLLFKDSAIGFSRVPPRIDSGLYLGSGYFTAIQNLRKSEEEVAARRARVVWCAVGEQELRKCNQWSGLSEGSVTCSSASTTEDCIALVLKGEADAMSLDGGYVYTAGKCGLVPVLAENYKSQQSSDPDPNCVDRPVEGYLAVAVVRRSDTSLTWNSVKGKKSCHTAVDRTAGWNIPMGLLFNQTGSCKFDEYFSQSCAPGSDPRSNLCALCIGDEQGENKCVPNSNERYYGYTGAFRCLAENAGDVAFVKDVTVLQNTDGNNNEAWAKDLKLADFALLCLDGKRKPVTEARSCHLAMAPNHAVVSRMDKVERLKQVLLHQQAKFGRNGSDCPDKFCLFQSETKNLLFNDNTECLARLHGKTTYEKYLGPQYVAGITNLKKCSTSPLLEACEFLRK
notes: human lactoferrin produced recombinantly
As for B1, the “Number of Cells CD3+” value in assay [1] (setting [3]) was determined as 3291. Also, the “Number of Cells CD4+” value in assay [1] (setting [3]) is 2621. In addition, the “Number of Cells CD8+” value in assay [1] (setting [3]) is on record as 1054. The “Increase with rhLF, CD3+” value in assay [1] (relative to placebo) is listed as 56%. For the same molecule, the “Increase with rhLF, CD4+” value in assay [1] (relative to placebo) stood at 46%. Moreover, the “Increase with rhLF, CD8+” value in assay [1] (relative to placebo) is 34%. Besides, the “Post Treatment 1 % Growth” value is listed as 13% (7.5) in assay [2] (Patient # 007, Lung, 7.5 weeks, pretreatment 160% (5.5 weeks)); −5% (10.5) in assay [2] (Patient # 102, Ovarian, 10.5 weeks, pretreatment 30% (21 weeks)); 10% (10) in assay [2] (Patient # 104, Gastric, 10 weeks, pretreatment 25% (5.5 weeks)); −18% (11) in assay [2] (Patient # 106, Melanoma, 11 weeks, pretreatment 24% (19 weeks)); 0% (10) in assay [2] (Patient # 204, Breast, 10 weeks, pretreatment 40% (8 weeks)). Besides, the “Post Treatment 2 % Growth” value in assay [2] (Patient # 007, Lung, 8.5 weeks) is recorded as 12% (8.5); in assay [2] (Patient # 102, Ovarian, 8.5 weeks), −7% (8.5); in assay [2] (Patient # 104, Gastric, 7 weeks), −5% (7); in assay [2] (Patient # 204, Breast, 6.5 weeks) it was 0% (6.5). Moreover, the “patients with stable disease by the RECIST criteria at the first post-treatment scan” value in assay [2] (nine of nineteen evaluable patients, oral 1.5 to 9 grams daily) is 47%.
